# Source: patent US8809529B2, “Imidazo[1,2-α]pyrazine derivatives” (Promega Corporation, priority 2010, dated 2014)
# Numbering of substitutions follows the chain as printed. Numbers in names are those of the source.
# T1: caspase-3 (Homo sapiens, UniProt P42574)
# T1 sequence (P42574 29-175 limits assumed): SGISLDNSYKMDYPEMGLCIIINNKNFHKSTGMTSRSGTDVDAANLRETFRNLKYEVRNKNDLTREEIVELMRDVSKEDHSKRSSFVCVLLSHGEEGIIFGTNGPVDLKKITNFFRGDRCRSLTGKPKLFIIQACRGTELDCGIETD
# T1 sequence (P42574 176-277 limits assumed): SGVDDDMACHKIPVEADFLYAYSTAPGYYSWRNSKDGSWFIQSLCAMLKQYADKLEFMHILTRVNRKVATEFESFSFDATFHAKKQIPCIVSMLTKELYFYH
# B1: L27V: 9B8 opt+K33N variant with L27V, T39T, K43R, Y68D (protein)
# chain: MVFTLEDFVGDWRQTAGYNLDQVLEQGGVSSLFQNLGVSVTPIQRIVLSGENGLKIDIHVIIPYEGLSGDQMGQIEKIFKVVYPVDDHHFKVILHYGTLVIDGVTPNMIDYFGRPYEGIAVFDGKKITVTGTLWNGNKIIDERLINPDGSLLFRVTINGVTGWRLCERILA
# B2: 9B8: IV variant with Q18L, F68Y, L72Q, M75K; in Tables 12, 22, 23, 26, 27 “9B8” stands for 9B8 opt (protein)
# chain: B1 chain with V29L, N35K, R45K, D70Y
# B3: 9B8 opt: codon optimized version of the 9B8 variant (protein)
# chain: B1 chain with V29L, N35K, R45K, D70Y
# What was measured:
# [1] = tested on: caspase-3; experiment: Caspase-3 bioluminescent assay with L27V and PBI-3741; assay type: biochemical; conditions: luminescence, 3 hrs at room temperature
# Experimental: (§1) 2. The L27V variant was used in a bioluminescent assay using a pro-coelenterazine substrate comprising the DEVD caspase-3 cleavage sequence “DEVD” disclosed as SEQ ID NO: 581). Purified caspase-3 enzyme (1 mg/mL) in 100 mM MES pH 6 (50 μL) was mixed with 227 nM L27V02 variant and 47 μM PBI-3741 (z-DEVD-coelenterazine-h (“DEVD” disclosed as SEQ ID NO: 581)) in assay buffer (50 μL). Reactions were incubated for 3 hrs at room temperature, and luminescence detected as previously described. The assay with the L27V variant was compared to a firefly luciferase version of the assay, CASPASE-GLO® 3/7-Assay system (Caspase-Glo; Promega Corp.).
# [2] = target: T1, caspase-3; experiment: as above; assay type: biochemical; conditions: luminescence, 3 hrs at room temperature
# Experimental: as §1
# [3] = Km of L27V reversion variants for PBI-3939; assay type: biochemical
# Experimental: (§2) Relative activities <1 indicate the reversion is detrimental compared to the residue at that site in the L27V variant. Relative activities >1 indicate the reversion is favorable for activity compared to the residue at that site in the L27V variant. Some additional data on these mutants indicated the following: 166K, 54F, 54A and L27V were tested for thermal stability. The T1/2 60° C. for 166K, 54F, and 54A were 87, 74, and 33%, respectively, indicating these substitutions cause a reduction in thermal stability. […] This indicates higher substrate affinity for L27V, particularly for the position 54 substitutions.
# [4] = Km of L27V reversion variants for native coelenterazine; assay type: biochemical
# Experimental: as §2
# [5] = tested on: HEK293 cells; experiment: Brightness on a per mole basis in HEK293 cells (HT7 fusions); assay type: cell-based, human
# [6] = tested on: CRE; experiment: CRE transcriptional reporter, bulk transfection, NIH3T3 cells; assay type: cell-based
# Experimental: (§3) The transcriptional reporter containing […] and 9B8 opt-P was used in the bulk transfection of HeLa cells
# (§4) HEK293, NIH3T3, or HeLa cells were plated to a single well of a 6-well tissue culture plate the day before transfection at a density of 4.5×10^5 cells/well in 3 mL complete medium (DMEM+10% FBS+1×NEAA+1× sodium pyruvate) for HEK293 cells, 3×10^5 cellsNvell in 3 mL complete medium (DMEM+10% fetal calf serum (FCS)+1×NEAA+1× sodium pyruvate) for NIH3T3 cells, or 9.9×10^5 cells/well in 3 mL complete medium (DMEM+10% FBS+1×NEAA) for HeLa cells. Cells were grown overnight at 37° C.
# (§5) 3,300 ng of reporter plasmid DNA in 155 4 OPTI-MEM® was mixed with 9.9 μL FUGENE® HD transfection reagent, vortexed briefly, and incubated at room temperature for 10 min. The CRE transcriptional reporters were used to transfect HEK293 and NIH3T3 cells. The HRE transcriptional reporters were used to transfect HeLa cells. The reporter mixture was added to cells and mixed by gentle rocking followed by incubation at 37° C. for 6 hrs (HEK293 and NIH3T3) or 3 hrs (HeLa). Cells were then trypsinized and resuspended in medium (DMEM+10% FBS+1×NEAA+1× sodium pyruvate for HEK293 cells, DMEM+10% FCS+1×NEAA+1× sodium pyruvate for NIH3T3 cells, or DMEM+10% FBS+1×NEAA for HeLa cells), followed by plating to the individual wells of a 96-well plate (20,000 cells/100 μL for HEK293, 10,000 cells/100 4 for NIH3T3, or […] for HeLa) and incubated at 37° C. overnight.
# (§6) FSK (CRE stimulator) or 17-AAG (HRE stimulator; 17-Allylamino-demethoxy geldanamycin) in OPTI-MEM® was added to the cells (10 nM or 10 μM final concentration for FSK; 1 nM or 1 μM final concentration for 17-AAG) and incubated at 37° C. for 4 hrs (FSK) or 6 hrs (17-AAG). Plates were removed from the incubator and allowed to equilibrate to room temperature for 25 min. Cells were lysed with 100 μL lytic reagent as described above for the forward transfection. Luminescence was measured on a GLOMAX® Luminometer.
# [7] = tested on: CRE; experiment: CRE transcriptional reporter, bulk transfection, HEK293 cells; assay type: cell-based, human
# Experimental: as §3, §4, §5, §6
# [8] = target: T1, caspase-3; experiment: Caspase-3 bioluminescent assay with 9B8 opt and z-DEVD-coelenterazine-h; assay type: biochemical
# Experimental: 1. […] Purified caspase-3 enzyme was mixed with an E. coli lysate sample expressing the variant 9B8 opt, which was prepared as described in Example 27, and diluted 10-fold in a buffer containing 100 mM MES pH 6.0, 1 mM CDTA, 150 mM KCl, 35 mM thiourea, 2 mM DTT, 0.25% TERGITOL® NP-9 (v/v), 0.025% MAZU® DF 204, with or without 23.5 μM z-DEVD-coelenterazine-h in 100 mM HEPES pH 7.5 (“DEVD” disclosed as SEQ ID NO: 581). The caspase-3 enzyme was incubated with the lysate sample for 3 hrs at room temperature, and luminescence detected on a Turner MODULUS™ luminometer at various time points. A sample containing only bacterial lysate and a sample containing only caspase-3 were used as controls. Three replicates were used.
molecule,measurement,setting,value
B1,(−) caspase,[1],803
same,(+) caspase,[2],"11,532"
same,Km,[3],18 µM
same,Km,[4],16 µM
B2,brightness relative to Luc2,[5],approximately 15 fold
same,brightness relative to hRL,[5],> 100 fold
B3,baseline,"[6]; NIH3T3, 10 nM FSK, 4 h","9,187,000"
same,RLU (10 mM FSK),"[6]; NIH3T3, 4 h","23,600,000 RLU"
same,Response,"[6]; NIH3T3, FSK",2.6
same,baseline,"[7]; HEK293, 10 nM FSK, 4 h","39,700,000"
same,RLU (10 mM FSK),"[7]; HEK293, 4 h","654,000,000 RLU"
same,Response,"[7]; HEK293, FSK",16
same,+ caspase (RLU),"[8]; 5 min, z-DEVD-coelenterazine-h","25,411 RLU"
same,no caspase (RLU),"[8]; 5 min, z-DEVD-coelenterazine-h","26,023 RLU"
same,+ caspase (RLU),[8]; 15.3 min,"36,906 RLU"
same,no caspase (RLU),[8]; 15.3 min,"7,707 RLU"
same,+ caspase (RLU),[8]; 29.9 min,"41,854 RLU"
same,no caspase (RLU),[8]; 29.9 min,"4,013 RLU"
same,+ caspase (RLU),[8]; 60.9 min,"43,370 RLU"
same,no caspase (RLU),[8]; 60.9 min,"2,305 RLU"
same,+ caspase (RLU),[8]; 190.3 min,"42,448 RLU"
same,no caspase (RLU),[8]; 190.3 min,"1,155 RLU"
